This note sets out measurements from patent publication US20240093191A1, “COMPOSITIONS AND METHODS FOR TREATING DISEASE ASSOCIATED WITH DUX4 OVEREXPRESSION” (RESEARCH INSTITUTE AT NATIONWIDE CHILDREN'S HOSPITAL, priority 2021, published 2024).

Format in all cases: cell-based, human
Data set [1] has as its system DUX4 ORF (RenLuc-DUX4 ORF). Briefly: Dual-luciferase assay, RenLuc-DUX4 ORF reporter co-transfected with miDUX4 plasmids in HEK293 cells. Also noted: increase in relative Renilla luciferase activity compared to original miDUX4 counterpart: concentration or dose not given beside the values. The following applies: for increase in relative Renilla luciferase activity compared to original miDUX4 counterpart: miDUX4 with mi405F flanking sequences. How it is done: Dual Luciferase Assay. (See also FIGS. 1A, 3A-B, 4A-B, 5B, and 16B-C.) This assay was performed as previously described by Wallace et al. (Mol. Ther. Methods Clin. Dev. 8: 121-30 (2018)) and following the dual-luciferase reporter assay system (Promega) protocol with some modifications. All plasmid constructs had the psiCheck2 dual luciferase reporter plasmid (Promega) as backbone that contains separate Renilla and Firefly luciferase genes, where the former contains the various target sequences used in the experiments of the disclosure, and the latter serves as a transfection normalizer (control). All DUX4 and control sequences were cloned downstream of the Renilla luciferase stop codon, serving as a 3′UTR. HEK293 cells were pre-plated 24h before transfection. Cells were then co-transfected with the luciferase DUX4 reporter and individual microRNA expression plasmids in an increasing luciferase DUX4 reporter:miRNA molar ratio using Lipofectamine 2000 (Invitrogen). Luciferase activity was measured 24h or 48h after transfection. DUX4 gene silencing was determined as previously described [Wallace et al., Mol. Ther. Methods Clin. Dev. 8: 121-30 (2018)]. Triplicate data were averaged per experiment, and individual experiments were performed 3 times. Results were reported as the average ratio of Renilla to Firefly luciferase activity±SEM for all combined experiments.
Accordingly, two new mi405 constructs, i.e., mi405F and mi405NF, were designed. […] To assess the inhibition efficiency of the three mi405 constructs, a dual-luciferase assay and western blot analysis, similar to what was described for mir-675, were carried out. In the dual-luciferase assay, U6.mi405, U6.mi405F, or U6.mi405NF was co-transfected into HEK293 cells along with the RenLuc-DUX4 ORF (a construct expressing the open reading frame of DUX4 as a 3′UTR sequence of Renilla Luciferase). 24 h after transfection, U6.mi405, U6.mi405F, and U6.mi405NF reduced the relative Renilla luciferase activity by 85±1%, 89±1%, and 66±1% (P<0.0001, ANOVA, N=3), respectively, when tested against the RenLuc-DUX4 ORF construct.

For the next data set, the system named is DUX4 protein. Briefly: Western blot of V5-tagged DUX4 protein in co-transfected HEK293 cells. Particulars: HEK293; for Average inhibition efficiency (%) of DUX4 protein levels: CMV.DUX4-FL/CMV.eGFP, molar ratio 1 to 3, eGFP normalizer, relative to U6-milacZ, N = 3-8. Here is the method:
Western Blots. […] 50 mM Tris (pH 7.5-8.0), 150 mM NaCl, 0.1% (v/v) SDS, 0.5% (v/v) deoxycholate, 1% (v/v) triton X-100 (Fisher Scientific) and 1 tablet of protease inhibitor (ThermoFisher Scientific) per 10 mL of buffer. The total protein extract was quantified using the DC Protein Assay (Bio-Rad). Twenty microgram samples were separated on 12% SDS-PAGE, transferred to nitrocellulose membrane, using the wet transfer system, and incubated with the following antibodies: mouse monoclonal antibody to V5 (horseradish peroxidase [HRP]-coupled) [1:5,000 in 5% milk TBST buffer (150 mM NaCl, 50 mM Tris-HCl pH 7.4 and 0.1% Tween 20 (Fisher Scientific)), R961-25; Invitrogen); rabbit polyclonal eGFP antibody (1:50,000 in 3% BSA PBS, ab290; Abcam); mouse monoclonal β-actin antibodies (1:60,000; Sigma, St Louis, MO); overnight at 4° C. When using the eGFP antibody, membranes were blocked 30 mins with 3% BSA PBS prior to blotting. eGFP-probed blots were washed five times, 5 min each with 0.5% Tween 20 (Fisher Scientific) in TBST buffer, and then incubated with HRP-coupled goat anti-rabbit secondary antibody (1:250,000 in 3% BSA PBS, 115-035-144; Jackson ImmunoResearch) for 2 hours at room temperature. V5-probed blots were washed five times, 5 min each with 0.1% Tween 20 in TBST buffer. Following washes, blots were developed using Immobilon Western HRP substrate (Millipore) and exposed to film. DUX4.V5, and eGFP quantification was assessed using ImageJ.

The subject of the next data set is mir-675-5p. In words: Small-transcript northern blot of mir-675 processing in HEK293 cells. Particulars: HEK293; anti-mir-675-5p biotinylated probe. The source says: Small-Transcript Northern Blots. […] (SEQ ID NO: 148)).

“And” between values parts separate entries of the source, which are not always exact repeats. Equal values may be shown once.

B1: U6.mi405NF: mi405 with one G at 5' end and no 3' flanking sequence (nucleic acid)
DNA: ACGCCGCCATCTCTAGGCCCGCGCCGGCCCCCTCGCACAGACTTGTGGGAGAAGCTCGGCTACTCCCCTGCCCCGGTTAATTTGCATATAATATTTCCTAGTAACTATAGAGGCTTAATGTGCGATAAAAGACAGATAATCTGTTCTTTTTAATACTAGCTACATTTTACATGATAGGCTTGGATTTCTATAAGAGATACAAATACTAAATTATTATTTTAAAAAACAGCACAAAAGGAAACTCACCCTAACTGTAAAGTAATTGTGTGTTTTGAGACTATAAATATCCCTTGGAGAAAAGCCTTGTTTGCTCGAGTGAGCGATCCAGGATTCAGATCTGGTTTCTGTAAAGCCACAGATGGGAAACCAGATCTGAATCCTGGACTGCCTACTAGATTTTTT
With B1, in data set [1] (1:4 DUX4:mi405 molar ratio, HEK293, 24 h, normalized to miGFP), the “reduction of relative Renilla luciferase activity” value came to 66±1%. Further, the “reduction of Renilla luciferase activity” value in data set [1] (DUX4:mi405 molar ratio 2 to 1, HEK293, 24 h, normalized to U6.miGFP) is 4±2% and 3.6±1.8%. Further, the “relative Renilla luciferase activity reached” value in data set [1] (DUX4:miDUX4 molar ratio 1:1) was 88±3%. Also, the “increase in relative Renilla luciferase activity” value in data set [1] (switching from molar ratio 1:2 to 1:1 DUX4:miDUX4) is recorded as 73±7%. Besides, the “reduction of DUX4 protein levels” value with DUX4 protein (1:4 DUX4:mi405 molar ratio, 24 h, normalized to miGFP, N=2) is listed as 70±13%.

B2: mi1311F: miDUX4 cloned with mi405F flanking sequences (nucleic acid)
DNA: GCTCGAGTGAGCGAGCGGAGAACTGCCATTCTTTCCTGTAAAGCCACAGATGGGGAAAGAATGGCAGTTCTCCGCGTGCCTACTAGTAATTCTTCGATTCTGC
modifications: expressed or natural sequence
Regarding B2, the “increase in relative Renilla luciferase activity compared to original miDUX4 counterpart” value in data set [1] (normalized to miGFP) is 27±9%.

B3: mi599F: miDUX4 cloned with mi405F flanking sequences (nucleic acid)
DNA: GCTCGAGTGAGCAGAGGCTCTCCCACAGGGGGCTTTCTGAAAGCCACAGATGGGAAAGCCCCCTGTGGGAGAGCCCTGCCTACTAGTAATTCTTCGATTCTGC
modifications: expressed or natural sequence
In the case of B3, in data set [1] (normalized to miGFP), the “increase in relative Renilla luciferase activity compared to original miDUX4 counterpart” value worked out at 24±9%.

B4: U6-milacZ: negative control miRNA expression plasmid (nucleic acid)
DNA: ACGCCGCCATCTCTAGGCCCGCGCCGGCCCCCTCGCACAGACTTGTGGGAGAAGCTCGGCTACTCCCCTGCCCCGGTTAATTTGCATATAATATTTCCTAGTAACTATAGAGGCTTAATGTGCGATAAAAGACAGATAATCTGTTCTTTTTAATACTAGCTACATTTTACATGATAGGCTTGGATTTCTATAAGAGATACAAATACTAAATTATTATTTTAAAAAACAGCACAAAAGGAAACTCACCCTAACTGTAAAGTAATTGTGTGTTTTGAGACTATAAATATCCCTTGGAGAAAAGCCTTGTTTGCGTTTAGTGAACCGTCAGATGGTACCGTTTAAACTCGAGTGAGCGACATGTTGCCACTCGCTTTAATCTGTAAAGCCACAGATGGGATTAAAGCGAGTGGCAACATGGCGCCTACTAGAGCGGCCGCCACAGCGGGGAGATCCAGACATGATAAGATACATTTTTT
Take B4: the “Average inhibition efficiency (%) of DUX4 protein levels” value (“Average inhibition efficiency (%)” for short) in the data set with DUX4 protein was 0 ± 2 (N = 8) %.

B5: U6-mir-675-2.4: mir-675 construct with flanks as U6.mir-675-2.3, different promoter (nucleic acid)
DNA: GAACGCTGACGTCATCAACCCGCTCCAAGGAATCGCGGGCCCAGTGTCACTAGGCGGGAACACCCAGCGCGCGTGCGCCCTGGCAGGAAGATGGCTGTGAGGGACAGGGGAGTGGCGCCCTGCAATATTTGCATGTCGCTATGTGTTCTGGGAAATCACCATAAACGTGAAATGTCTTTGGATTTGGGAATCTTATAAGTTCTGTATGAGACCACTTGGATCCAATCACACTGCCCCAGGGTCTGGTGCGGAGAGGGCCCACAGTGGACTTGGTGACGCTGTATGCCCTCACCGCTCAGCCCCTGGGGATACTCCTAATCACACTTTTTT
With B5, in the data set with DUX4 protein, the “Average inhibition efficiency (%)” value is reported as 63 ± 7 (N = 5) %.

B6: mi185F: miDUX4 cloned with mi405F flanking sequences (nucleic acid)
DNA: GCTCGAGTGAGCGAGGTCCAGATTTGGTTTCAGAACTGTAAAGCCACAGATGGGTTCTGAAACCAAATCTGGACCCTGCCTACTAGTAATTCTTCGATTCTGC
modifications: expressed or natural sequence
Consider B6, for which the “increase in relative Renilla luciferase activity compared to original miDUX4 counterpart” value in data set [1] (normalized to miGFP) is 160±8%.

B7: mi186F: miDUX4 cloned with mi405F flanking sequences (nucleic acid)
DNA: GCTCGAGTGAGCGAGTCCAGATTTGGTTTCAGAATCTGTAAAGCCACAGATGGGATTCTGAAACCAAATCTGGACCTGCCTACTAGTAATTCTTCGATTCTGC
modifications: expressed or natural sequence
Regarding B7, the “increase in relative Renilla luciferase activity compared to original miDUX4 counterpart” value in data set [1] (normalized to miGFP) amounted to 27±9%.

B8: mi318F: miDUX4 cloned with mi405F flanking sequences (nucleic acid)
DNA: GCTCGAGTGAGCGAGCCCTGCTCCTCCGAGCCTTTCTGAAAGCCACAGATGGGAAAGGCTCGGAGGAGCAGGGCGTGCCACTAGTAATTCTTCGATTCTGC
modifications: expressed or natural sequence
Consider B8, for which the “increase in relative Renilla luciferase activity compared to original miDUX4 counterpart” value in data set [1] (normalized to miGFP) came to 44±15%.

B9: U6.mir-675-2.2: mir-675 construct with flanks as U6.mir-675-2.1, different promoter (nucleic acid)
DNA: GAACGCTGACGTCATCAACCCGCTCCAAGGAATCGCGGGCCCAGTGTCACTAGGCGGGAACACCCAGCGCGCGTGCGCCCTGGCAGGAAGATGGCTGTGAGGGACAGGGGAGTGGCGCCCTGCAATATTTGCATGTCGCTATGTGTTCTGGGAAATCACCATAAACGTGAAATGTCTTTGGATTTGGGAATCTTATAAGTTCTGTATGAGACCACTTGGATCCCCCAGGGTCTGGTGCGGAGAGGGCCCACAGTGGACTTGGTGACGCTGTATGCCCTCACCGCTCAGCCCCTGGGGTAACTCCTAATCACACTTTTTT
For B9, the “Average inhibition efficiency (%)” value with DUX4 protein was 58 ± 6 (N = 5) %. For the same molecule, the “mature mir-675-5p bands on northern blot” value with mir-675-5p is “detectable mir-675 mature sequences”.

B10: mi1156F: miDUX4 cloned with mi405F flanking sequences (nucleic acid)
DNA: GCTCGAGTGAGCGAAGGCGCAACCTCTCCTAGAAACTGAAAGCCACAGATGGGTTTCTAGGAGAGGTTGCGCCTGTGCCTACTAGTAATTCTTCGATTCTGC
modifications: expressed or natural sequence
For B10, the “increase in relative Renilla luciferase activity compared to original miDUX4 counterpart” value in data set [1] (normalized to miGFP) stood at 34±8%.

B11: U6-mir-675-2.6: mir-675 construct with modified 5' and 3' flanking sequences (nucleic acid)
DNA: TCTAGAGATCCGACGCCGCCATCTCTAGGCCCGCGCCGGCCCCCTCGCACAGACTTGTGGGAGAAGCTCGGCTACTCCCCTGCCCCGGTTAATTTGCATATAATATTTCCTAGTAACTATAGAGGCTTAATGTGCGATAAAAGACAGATAATCTGTTCTTTTTAATACTAGCTACATTTTACATGATAGGCTTGGATTTCTATAAGAGATACAAATACTAAATTATTATTTTAAAAAACAGCACAAAAGGAAACTCACCCTAACTGTAAAGTAATTGTGTGTTTTGAGACTATAAATATCCCTTGGAGAAAAGCCTTGTTAACGCGCCCCAGGGTCTGGTGCGGAGAGGGCCCACAGTGGACTTGGTGACGCTGTATGCCCTCACCGCTCAGCCCCTGGGGTAACTCCTAATCACACTTTTTT
Turning to B11, the “Average inhibition efficiency (%)” value in the data set with DUX4 protein was 63 ± 2 (N = 5) %.
